Measurements reported in PMC11832431 (MedComm, 2025).

Biological target: T1, His-DUB3 (deubiquitinating enzyme 3) (UniProt Q6R6M4 1-530)
T1 construct: deubiquitinating enzyme 3 (DUB3); also called purified recombinant His-DUB3; source: purified recombinant (cloned into PET28A)
T1 sequence (looked up): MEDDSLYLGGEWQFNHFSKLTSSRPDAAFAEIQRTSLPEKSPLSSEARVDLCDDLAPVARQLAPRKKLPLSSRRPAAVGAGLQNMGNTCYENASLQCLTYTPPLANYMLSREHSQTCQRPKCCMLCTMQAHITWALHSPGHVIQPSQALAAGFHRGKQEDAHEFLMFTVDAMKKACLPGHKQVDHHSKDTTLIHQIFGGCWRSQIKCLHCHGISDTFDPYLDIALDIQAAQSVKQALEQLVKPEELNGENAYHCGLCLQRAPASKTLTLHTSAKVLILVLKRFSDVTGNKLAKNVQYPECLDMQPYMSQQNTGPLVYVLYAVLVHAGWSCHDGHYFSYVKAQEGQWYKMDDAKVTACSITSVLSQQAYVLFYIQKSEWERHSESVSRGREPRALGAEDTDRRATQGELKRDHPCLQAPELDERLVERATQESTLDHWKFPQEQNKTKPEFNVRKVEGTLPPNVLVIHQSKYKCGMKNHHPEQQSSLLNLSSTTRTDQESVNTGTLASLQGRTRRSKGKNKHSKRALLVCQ
Test: pull-down; purified recombinant GST or GST fusion protein incubated in vitro (cell-free) with purified recombinant His-tagged protein; blot and Coomassie blue staining
Settings: both partners purified

B1: GST-CDK4 (cyclin-dependent kinase 4) (enzyme, UniProt P11802 1-303, looked up)
chain: MATSRYEPVAEIGVGAYGTVYKARDPHSGHFVALKSVRVPNGGGGGGGLPISTVREVALLRRLEAFEHPNVVRLMDVCATSRTDREIKVTLVFEHVDQDLRTYLDKAPPPGLPAETIKDLMRQFLRGLDFLHANCIVHRDLKPENILVTSGGTVKLADFGLARIYSYQMALTPVVVTLWYRAPEVLLQSTYATPVDMWSVGCIFAEMFRRKPLFCGNSEADQLGKIFDLIGLPPEDDWPRDVSLPRGAFPPRGPRPVQSVVPEMEESGAQLLLEMLTFNPHKRISAFRALQHSYLHKDEGNPE
notes: cyclin-dependent kinase 4 (CDK4); CDK4 and CDK6 were cloned as separate genes, so they are written as two molecules; No cyclin is mentioned; also called GST-CDK4/6; source: purified recombinant (cloned into pGEX4T-1)
  binding result: binds
